Usually Kd stands for the concentration at which binding is half-saturated. A higher Kd goes with a looser complex.

Data set [1] concerns the molecule itself. The experiment in a line: BLI (forteBIO Octet RED96), antibody captured on ProA biosensor, self-association in acetate buffer pH 5.5; acetate at pH 5.5; self-association. As for the experimental part: (§1) Self-association binding constant: At high concentrations, undesirable solution properties such as self-association can pose significant challenges to preparation development. In addition to potential manufacturing and delivery challenges, self-associating substances can also affect biological activity and pharmacokinetic properties.
(§2) The self-association binding constants were measured using the forteBIO Octet technique (Octet RED96). The antibodies were diluted to 150 ug/mL with an acetate buffer (pH 5.5), and then added to sample plates (forteBIO, Greiner, PN655209). A ProA biosensor (forteBIO) was used to capture antibodies. Measurements were performed using basic dynamics under the following settings: baseline 60/load 900/baseline 60/association 300/dissociation 300. The association (Kon) and dissociation (Kdis) rate constants of the target antigen were calculated and used to obtain the dissociation constant (KD). All calculations were performed using software provided by forteBIO.
(In general: In BLI a coated tip is dipped into the sample, and binding shifts an interference pattern.)

Data set [2] concerns the molecule itself. The data set is described as follows: BLI (forteBIO Octet RED96), antibody captured on ProA biosensor, self-association in acetate buffer pH 5.5. As for the experimental part:
as §1, §2

Residue numbers refer to the chain shown, from its start.

B1: M-751 (antibody, V domains shown)
VH: QVQLVQSGAEVKKPGSSVKVSCKASGYTFTNYWMNWVRQAPGQGLEWMGMIHPSDSETRLNQKFQGRVTITVDKSTSTAYMELSSLRSEDTAVYYCAREGRLGLRSYAMDYWGQGTLVTVSS
VL: DIQMTQSPSSLSASVGDRVTITCRSSQSLLNSSNQKNYLAWYQQKPGKVPKLLIYFASTRESGVPSRFSGSGSGTDFTLTISSLQPEDVATYFCQQHYITPLTFGGGTKVEIKR
notes: also called candidate antibody
The protein B1 returned a dissociation constant Kd in data set [1] of 438 µM.

B2: M-747 (antibody, human IgG1, kappa, V domains shown)
VH: B1 VH with A9S, V11L, S16A, Q65K, G66D
VL: DIVMTQSPDSLAVSLGERATINCKSSQSLLNSSNQKNYLAWYQQKPGQPPKLLVYFASTRESGVPDRFSGSGSGTDFTLTISSLQAEDVAVYFCQQHYITPLTFGGGTKVEIKR
notes: Humanized anti-DKK2 parental antibody; also called parental antibody; parental molecule
Turning to B2, binding in data set [2] was put at a Kd of 208 µM.

B3: M-755 (antibody, V domains shown)
VH: B1 VH with S16A, F64L, S84R, E89D
VL: B1 VL with V49A, V89F
notes: as for B1
Protein B3 yielded a Kd in data set [2] of 456 µM.

The record behind these values is patent US20230406915A1 (HJB HANGZHOU, published 2023).
